From paper PMC12678314, “Redox regulation of glutamate-1-semialdehyde aminotransferase modulates the synthesis of 5-aminolevulinic acid in Arabidopsis” (Frontiers in Plant Science, 2025)

Target: the molecule itself
Experiment: native gel or EMSA; purified His-GSAATAt (300 µM), no pretreatment, non-reducing/non-denaturing polyacrylamide gel; dimer to monomers

B1: recombinant His-tagged Arabidopsis glutamate-1-semialdehyde aminotransferase 1, wild type (enzyme)
chain: not shown
notes: Arabidopsis thaliana GSAAT1 (AtGSA1, AT5G63570), mature protein without the transit peptide 1-38 according to UniProt P42799; pET-28a(+); the methods remove 1-38; also called His-GSAAT; His-GSAATAt; source: E. coli Rosetta, purified (Ni-NTA); not shown: His6, N-terminal, kept
  stoichiometry N: 2
